According to paper doi:10.1101/2025.10.01.679806 (bioRxiv, 2025):

Target: the molecule itself
Assay: methyl-TROSY NMR

B1: Bpa 45-153 (domain or fragment)
chain: AKVMRIGTMIKQLLEEVRAAPLDEASRNRLRDIHATSIRELEDGLAPELREELDRLTLPFNEDAVPSDAELRIAQAQLVGWLEGLFHGIQTALFAQQMAARAQLQQMRQ
- stoichiometry N: 4
